Results reported in publication doi:10.1101/2025.11.05.686883 (bioRxiv, 2025).
Where a chain is given by its changes, count along the chain named. Like-named read-outs stand apart in the source and are kept apart here.

What was measured:
[1] = molecular target: T1, HCV-1 sE1E2.Cut1+2.SPYΔN-His6 (Hepatitis C virus genotype 1a, isolate …, UniProt P26664, stabilised); test: BLI
H77 E1E2, wild type [2] = molecular target: T2, H77 E1E2, wild type (Hepatitis C virus genotype 1a, isolate …); test: ELISA
[3] = molecular target: T1, HCV-1 sE1E2.Cut1+2.SPYΔN-His6; test: negative-stain electron microscopy
HCV-1 E1E2 = HCV-1 E1E2 (Hepatitis C virus genotype 1a, isolate …, UniProt P26664, strain); test: ELISA
H77 E1E2, wild type [4] = molecular target: T2, H77 E1E2, wild type; test: ELISA; remark: listed apart in the source
[5] = molecular target: T1, HCV-1 sE1E2.Cut1+2.SPYΔN-His6; test: BLI; remark: listed apart in the source

B1: RM3-26 (IgG) (antibody, V domains shown)
VH: QLQLQESGPGLVKPSETLSLTCIVSGGSISGYSWNWIRQPPGKGLEWIGNIFSGGDDANYNPSLKSRVTLSVDTSKNHFSLRLSSVTAADTAVYYCARHSAGFITGRYFELWGQGALVTVSS
VL: DIQMTQSPSSLSASLGDRVTITCRANQDISSSLAWYQQKPGKAPKPLIYYASNLESGVPSRFRGSGSGTEFTLTISSLQSEDFAVYYCQQYNSDPLTFGGGTKVEIK
B1: binds [1].

B2: RM3-26 variant, heavy chain CDRH3 R100c to alanine, wild-type light chain (antibody, V domains shown)
VH: B1 VH with R107A
VL: B1 VL
B2: binds (H77 E1E2, wild type [2]).

B3: RM3-26 variant, light chain CDRL2 Y50 to alanine, wild-type heavy chain (antibody, V domains shown)
VH: B1 VH
VL: B1 VL with Y50A
B3: binds (H77 E1E2, wild type [2]).

B4: RM3-26 variant, heavy chain CDRH1 Y32 to alanine, wild-type light chain (antibody, V domains shown)
VH: B1 VH with Y32A
VL: B1 VL
B4: binds (H77 E1E2, wild type [2]).

B5: RM3-26 variant, heavy chain CDRH3 Y100d to alanine, wild-type light chain (antibody, V domains shown)
VH: B1 VH with Y108A
VL: B1 VL
B5: no binding (tested: 1 µg/mL (methods)) (H77 E1E2, wild type [2]).

B6: RM3-26 variant, light chain CDRL3 Y91 to alanine, wild-type heavy chain (antibody, V domains shown)
VH: B1 VH
VL: B1 VL with Y91A
B6: binds (H77 E1E2, wild type [2]).

B7: RM3-26 variant, heavy chain CDRH3 T100a to alanine, wild-type light chain (antibody, V domains shown)
VH: B1 VH with T105A
VL: B1 VL
B7: no binding (tested: 1 µg/mL (methods)) (H77 E1E2, wild type [2]).

B8: K595 Fab (Fab, V domains shown)
VH: EVQLLESGGGLVQPGGSLRLSCAASGFTFSNYVMTWARQAPGKGLEWVSSISDSGGNADYAHSVRGRFTISRDNSKNTLFLHMNSLRVEDTAVYHCAKALIAPGSLFRDQLLNWFDFWGQGTRVTVSS
VL: DIQMTQSPSTLSASVGDRVTITCRASQSIGNWLAWYQQKPGKAPKLLIYQASTLKSGVPSRFSGSGSGTEFSLTISSLQPDDLATYFCQQYNGSPLTFAGGTKVEIK
B8: binds [3].

B9: K595 (antibody) (antibody, V domains shown)
VH: B8 VH
VL: B8 VL
B9: binds (HCV-1 E1E2).

B10: K400 Fab (Fab, V domains shown)
VH: EVQLVQSGAEVKTPGASVRVSCTASGDTFTNHDIHWVRQAPGQGLEWMGGMNADSGKTAYAQKFQGRVSMTINTPTNTAYMDLSSLRSEDTALYYCARGDGLDFTLFGVAHYSYYNGVGVWGHGTTITVSS
VL: EIVMTQSPLALPVTPGEPASIFCKSSHSLLHYNGYTYLDWYLQKPGQSPQLLIYLGSNRASGVPDRFSGSGSGTEFTLKISRVEAEDVGVYYCMQALQTPITFGQGTRLEIK
B10: binds [3].

B11: K400 (antibody) (antibody, V domains shown)
VH: B10 VH
VL: B10 VL
B11: binds (H77 E1E2, wild type [4]); binds (HCV-1 E1E2).

B12: AR4A Fab (Fab, V domains shown)
VH: VQLLEQSGPEVKKPGDSLRISCKMSGDSLVTTWIGWVRQKPGQGLEWMGIINPGDSSTNIYPGDSATRYGPSFQGQVTISIDKSTSTAYLQWNNVKASDTGIYYCARHVPVPISGTFLWREREMHDFGYFDDWGQGTLVIVSS
VL: ELTLTQSPGTLSLSPGERATLSCRASQSVSNNYLAWYQQKPGQAPRLLIYGASSRATGIPDRFSGSGSGTGFTLIISRLEPEDFAVYYCQQYGSSSITFGQGTRLEIK
B12: binds [3].

B13: AR4A (IgG) (antibody, V domains shown)
VH: B12 VH
VL: B12 VL
B13: binds (HCV-1 E1E2); binds [5].
